These results are taken from US20220332804A1 (CSL INNOVATION, published 2022).

As a reminder, the Kd is the constant that tells how readily two partners part at equilibrium. Read a high Kd as lower affinity.

Holding throughout (assay): SPR, antibody captured, C2 as analyte;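 also: biacore SPR at 37 °C, anti-C2 mAbs captured via goat anti-human IgG on CM5 chips, double-referenced sensorgrams fit to a 1:1 kinetic or steady-state model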
(In general: SPR reads the build-up and loss of mass on a sensor chip optically.)

The target in one assay is T1, human C2 D282A (human, UniProt P06681 21-752).
T1 sequence: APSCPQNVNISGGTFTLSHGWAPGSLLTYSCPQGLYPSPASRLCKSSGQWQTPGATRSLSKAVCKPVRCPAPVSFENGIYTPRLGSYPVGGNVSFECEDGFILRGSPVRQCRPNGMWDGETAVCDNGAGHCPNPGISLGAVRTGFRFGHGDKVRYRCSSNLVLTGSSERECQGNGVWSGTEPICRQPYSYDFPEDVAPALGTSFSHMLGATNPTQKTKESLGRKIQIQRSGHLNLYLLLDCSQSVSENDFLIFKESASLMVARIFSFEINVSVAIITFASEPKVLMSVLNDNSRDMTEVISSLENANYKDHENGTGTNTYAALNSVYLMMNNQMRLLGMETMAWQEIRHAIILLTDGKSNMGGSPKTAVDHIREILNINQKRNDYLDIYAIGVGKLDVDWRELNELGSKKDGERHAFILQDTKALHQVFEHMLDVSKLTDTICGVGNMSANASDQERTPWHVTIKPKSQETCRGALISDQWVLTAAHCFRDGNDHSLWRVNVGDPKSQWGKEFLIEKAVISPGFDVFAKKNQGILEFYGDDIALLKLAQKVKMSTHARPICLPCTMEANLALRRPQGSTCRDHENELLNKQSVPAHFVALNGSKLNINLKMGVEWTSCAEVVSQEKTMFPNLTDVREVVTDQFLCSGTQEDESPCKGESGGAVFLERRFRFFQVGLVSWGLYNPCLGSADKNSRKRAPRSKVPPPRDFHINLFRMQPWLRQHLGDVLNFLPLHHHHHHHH

The next assay addresses T2, human C2 L453A (human, UniProt P06681 21-752).
T2 sequence: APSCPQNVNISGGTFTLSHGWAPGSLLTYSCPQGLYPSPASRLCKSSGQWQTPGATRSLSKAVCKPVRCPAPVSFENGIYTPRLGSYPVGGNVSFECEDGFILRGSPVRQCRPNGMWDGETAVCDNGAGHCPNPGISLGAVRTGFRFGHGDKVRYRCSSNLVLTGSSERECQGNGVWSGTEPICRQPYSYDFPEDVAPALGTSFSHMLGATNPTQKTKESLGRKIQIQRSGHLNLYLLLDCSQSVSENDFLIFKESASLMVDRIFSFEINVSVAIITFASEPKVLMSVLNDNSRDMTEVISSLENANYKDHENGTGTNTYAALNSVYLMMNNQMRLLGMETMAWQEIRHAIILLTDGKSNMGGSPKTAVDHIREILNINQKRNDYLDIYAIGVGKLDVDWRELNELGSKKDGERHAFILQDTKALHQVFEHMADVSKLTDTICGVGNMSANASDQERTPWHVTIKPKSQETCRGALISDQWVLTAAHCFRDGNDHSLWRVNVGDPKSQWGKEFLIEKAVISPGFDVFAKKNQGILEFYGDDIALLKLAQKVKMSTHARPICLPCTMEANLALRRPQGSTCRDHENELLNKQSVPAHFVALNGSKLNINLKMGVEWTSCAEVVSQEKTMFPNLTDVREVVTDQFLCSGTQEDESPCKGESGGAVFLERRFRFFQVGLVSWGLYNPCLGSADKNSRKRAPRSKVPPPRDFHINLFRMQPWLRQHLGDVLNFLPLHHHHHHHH

The next assay has as its target T3, human C2 S428A (human, UniProt P06681 21-752).
T3 sequence: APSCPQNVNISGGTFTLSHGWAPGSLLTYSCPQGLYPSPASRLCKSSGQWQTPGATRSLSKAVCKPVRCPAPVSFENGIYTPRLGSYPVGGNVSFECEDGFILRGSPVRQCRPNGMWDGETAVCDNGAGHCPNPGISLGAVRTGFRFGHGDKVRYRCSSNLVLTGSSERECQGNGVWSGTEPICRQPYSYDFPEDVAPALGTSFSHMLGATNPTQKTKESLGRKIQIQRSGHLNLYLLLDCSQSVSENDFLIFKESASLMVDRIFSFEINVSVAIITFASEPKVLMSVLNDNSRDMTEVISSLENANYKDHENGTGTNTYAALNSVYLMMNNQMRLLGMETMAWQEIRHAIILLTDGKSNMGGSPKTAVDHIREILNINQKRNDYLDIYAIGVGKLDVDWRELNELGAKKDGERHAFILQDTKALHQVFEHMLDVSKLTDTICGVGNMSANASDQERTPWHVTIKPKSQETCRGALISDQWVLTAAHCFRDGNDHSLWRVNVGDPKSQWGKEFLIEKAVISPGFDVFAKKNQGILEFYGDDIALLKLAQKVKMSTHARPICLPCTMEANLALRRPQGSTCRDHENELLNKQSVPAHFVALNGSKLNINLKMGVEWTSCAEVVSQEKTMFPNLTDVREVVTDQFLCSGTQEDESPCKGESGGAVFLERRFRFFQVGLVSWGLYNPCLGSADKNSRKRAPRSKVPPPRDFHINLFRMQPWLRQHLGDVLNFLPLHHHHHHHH

The target in the next assay is T4, human C2 L439A (human, UniProt P06681 21-752).
T4 sequence: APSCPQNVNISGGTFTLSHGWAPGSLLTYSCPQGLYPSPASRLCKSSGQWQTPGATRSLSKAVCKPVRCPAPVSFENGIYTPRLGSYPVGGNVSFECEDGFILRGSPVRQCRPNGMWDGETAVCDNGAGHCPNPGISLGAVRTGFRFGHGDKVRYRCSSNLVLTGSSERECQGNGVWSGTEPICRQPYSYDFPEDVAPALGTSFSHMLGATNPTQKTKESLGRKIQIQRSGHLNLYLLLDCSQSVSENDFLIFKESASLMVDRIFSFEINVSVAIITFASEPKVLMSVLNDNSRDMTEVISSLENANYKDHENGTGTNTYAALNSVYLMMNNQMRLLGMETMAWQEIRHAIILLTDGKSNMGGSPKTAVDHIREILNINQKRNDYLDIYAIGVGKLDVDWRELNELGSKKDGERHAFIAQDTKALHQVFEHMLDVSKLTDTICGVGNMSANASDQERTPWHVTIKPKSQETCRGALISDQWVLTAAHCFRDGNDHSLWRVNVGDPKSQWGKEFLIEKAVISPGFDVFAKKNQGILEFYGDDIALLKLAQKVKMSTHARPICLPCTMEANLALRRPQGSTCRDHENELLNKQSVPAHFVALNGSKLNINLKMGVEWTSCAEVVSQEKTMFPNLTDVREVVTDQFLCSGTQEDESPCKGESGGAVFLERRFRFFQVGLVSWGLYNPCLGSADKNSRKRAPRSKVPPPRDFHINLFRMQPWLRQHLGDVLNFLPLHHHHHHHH

B1: RF16-226 (antibody, human IgG4 S228P, lambda)
heavy: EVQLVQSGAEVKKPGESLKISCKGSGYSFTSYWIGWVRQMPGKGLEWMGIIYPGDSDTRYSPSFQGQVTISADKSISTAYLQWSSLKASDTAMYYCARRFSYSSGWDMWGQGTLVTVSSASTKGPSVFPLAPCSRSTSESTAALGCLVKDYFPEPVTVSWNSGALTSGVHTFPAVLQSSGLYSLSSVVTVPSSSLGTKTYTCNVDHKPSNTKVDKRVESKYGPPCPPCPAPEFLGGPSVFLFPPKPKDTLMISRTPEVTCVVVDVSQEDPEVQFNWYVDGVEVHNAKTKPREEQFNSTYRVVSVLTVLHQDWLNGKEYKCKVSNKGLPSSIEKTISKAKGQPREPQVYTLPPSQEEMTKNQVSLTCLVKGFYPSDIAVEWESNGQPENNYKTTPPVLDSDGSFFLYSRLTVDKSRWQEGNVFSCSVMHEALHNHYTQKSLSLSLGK
light: SYELTQPPSVSVSPGQTARITCSGDALTSKYVAWYQQKSGLAPLLVIYEDTRRPSGIPAKFSGSSSGSVATLTISGAHGDDEADYYCYSTDASGHQRVFGGGTKLTVLSQPKAAPSVTLFPPSSEELQANKATLVCLISDFYPGAVTVAWKADGSPVKAGVETTKPSKQSNNKYAASSYLSLTPEQWKSHRSYSCQVTHEGSTVEKTVAPTECS
notes: pH-dependent anti-C2 antibody from a phage display library; also called WT
B1: the Kd with human C2 D282A amounted to 8.9 nM; with human C2 L453A, 29.9 nM; with human C2 S428A, 18.8 nM; in the assay with human C2 L439A, 118 nM.
